± gives the uncertainty stated by the source.
Assay: self-splicing fitness, log relative to wild type (ln ratio); higher = more splicing; Tetrahymena group I intron in knt gene, E. coli kanamycin selection, DiMSum; sequences stand for … in CUCUCU…GGAGGGAAAAGUUAUCAGGCAUGCACCUGGUAGCUAGUCUUUAAACCAAUAGAUUGCAUCGGUUUAAAAGGCAAGACCGUCAAAUUGCGGGAAAGGGGUCAACAGCCGUUCAGUACCAAGUCUCAGGGGAAACUUUGAGAUGGCCUUGCAAAGGGUAUGGUAAUAAGCUGACGGACAUGGUCCUAACCACGCAGCCAAGUCCUAAGUCAACAGAUCUUCUGUUGAUAUGGAUGCAGUUCACAGACUAAAUGUCGGUCGGGGAAGAUGUAUUCUUCUCAUAAGAUAUAGUCGGACCUCUCCUUAAUGGGAGCUAGCGGAUGAAGUGAUGCAACACUGGAGCCGCUGGGAACUAAUUUGUAUGCGAAAGUAUAUUGAUUAGUUUUGGAGUACUCGUGGUCG
How it was run: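 Pooled colonies went to amplicon sequencing on an Illumina HiSeq 2500 after six replicate transformations. The plates were LB agar with 100 μg/mL carbenicillin, 50 μM IPTG and 0.2% rhamnose, with or without 25 μg/mL kanamycin, incubated overnight at 37°C or 30°C. The E. coli BL21(DE3) library had all eight P1ex-region intron nucleotides randomised, the intron placed in the knt kanamycin-resistance gene on pET-22b(+). DiMSum fitness is the error-weighted combination of replicate fold changes, kanamycin against none, normalised to wild type.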

Row | Sequence | self-splicing fitness (ln) (30 °C) | self-splicing fitness (ln) (37 °C)
1 | UCUAAGCAAUAUUACGUGUG | -1.02 ± 0.075 | -0.603 ± 0.1
2 | UAGGAGCAAUAUUACGACCA | -1.68 ± 0.13 | -0.415 ± 0.19
3 | UCUUAGCAAUAUUACGUGUA | -0.944 ± 0.17 | -1.19 ± 0.2
4 | GCAUAGCAAUAUUACGUGGC | -2.72 ± 0.32 | -2.15 ± 0.31
5 | CUACAGCAAUAUUACGUAUA | -2.73 ± 0.2 | -1.13 ± 0.18
6 | UAUAAGCAAUAUUACGCAUA | -1.92 ± 0.12 | -0.585 ± 0.12
7 | CCAAAGCAAUAUUACGAAUC | -2.82 ± 0.33 | -2.52 ± 0.34
8 | AGAAAGCAAUAUUACGUACU | -0.412 ± 0.096 | 0.261 ± 0.11
9 | GUUAAGCAAUAUUACGACUU | 0.183 ± 0.11 | 0.278 ± 0.13

From the supplement of paper PMC7877785
